Reference: patent US20180346592A1 (MOGAM INSTITUTE FOR BIOMEDICAL RESEARCH, published 2018)

Assays:
[1] = molecular target: T1, GPC3 on the surface of hepatic cancer cell lines (SK-Hep1-GPC3 transfectant, HepG2, Huh7, Hep3B, SNU398) (human, UniProt P51654 25-554); test: FACS, SK-Hep1-GPC3 #9 cells, 1 ug antibody; lower left panel
T1 construct: Species is not restated for the cells (hepatic cancer cell lines, or SK-Hep1 transfected with pCMV/GPC3); also called glypican 3
Procedure: (§1) After detaching SK-Hep1-GPC3 cells by adding a TrypLE Express solution thereto, the detached SK-Hep1-GPC3 cells were put into a 50 mL tube and centrifuged at room temperature and 2000 rpm for 3 minutes to remove a culture medium, followed by washing with PBS once. The resultant was suspended using a FACS buffer, transferred to a round bottom tube, and centrifuged at room temperature and 2000 rpm for 3 minutes. A supernatant was removed, and the resultant was suitably dissolved using the FACS buffer so as to have a concentration of 4×10⁵ ea/mL. Then, a candidate antibody (1 μg) was added thereto at 4° C., and in an […] control group, a human IgG (1m, Sigma) was added instead of the candidate antibody. After 1 hour, the resultant was washed with the FACS buffer two times, a goat anti-human IgG antibody and FITC conjugated were added thereto at an amount of 1 μL per sample and bound thereto at 4° C. for 30 minutes. After collecting cells by centrifugation at 2000 rpm for 3 minutes, the cells were re-suspended by adding a fixation buffer (500 μL), and measured using a FACS calibur (FIG. 5).

[2] = molecular target: T1, GPC3 on the surface of hepatic cancer …; test: FACS, HepG2 cells, 1 ug antibody; lower left panel (Human naive library)
[3] = molecular target: T2, recombinant human GPC3 (Cat. No. 2119-GP-050, R&D systems) purified from HEK293 cells (human, UniProt P51654 25-559); test: SPR, Biacore T-200, GPC3 immobilised on CM5 chip, antibody flowed 0.078-5 nM
T2 construct: Bought protein
Procedure: Quantitative binding capacity (affinity) of GX102 and GX270 clone antibodies, purified anti-GPC3 antibodies, to recombinant human GPC 3 was measured using a Biacore T-200(GE Healthcare, U.S.) biosensor. After immobilizing GPC3 (Cat. No. 2119-GP-050, R&D systems) purified from HEK293 cells onto a CM5 chip (GE Healthcare) to an Rmax of 200 using an amine-carboxyl reaction, the GX102 or GX270 antibody sequentially diluted in a HBS-EP buffer solution (10 mM HEPES, pH7.4, 150 mM NaCl, 3 mM EDTA, 0.005% surfactant P20) was flowed at a flow rate of 30 μL/min in a concentration range of 0.078 nM to 5 nM for an association time of 120 seconds and a dissociation time of 1800 seconds. Dissociation of the antibody bound to GPC3 was induced by flowing 10 mM Glycine-HCl (pH1.5) at a flow rate of 30 μL/min for 30 seconds (Table 3). Affinity was obtained as kinetic rate constants (Kₒₙ and Koff) and an equivalent dissociation constant (KD) using a Biacore T-200 evaluation software (Table 4).

[4] = molecular target: T1, GPC3 on the surface of hepatic cancer …; test: FACS, SK-Hep1-GPC3 cells, 1 ug antibody; lower right panel
Procedure: as §1

[5] = molecular target: T1, GPC3 on the surface of hepatic cancer …; test: FACS, HepG2 cells, 1 ug antibody; lower right panel

| Binder | Mean, FL2-H [1] | Mean, FL2-H [2] | Kd [3] [nM] | Mean, FL2-H [4] | Mean, FL2-H [5] |
| --- | --- | --- | --- | --- | --- |
| clone GX122 (scFv, V domains shown, scFv library clone tested as culture supernatant) VH: EVQLVESGAEVKKPGASVKVSCKASGYTFTSYYMHWVRQAPGQGLEWMGIINPSGGSTSYAQKFQGRVTMTRDTSTSTVYMELSSLRSEDTAVYYCARDGGSSPDIWGQGTMVTVSS VL: SYELTQPPSVSVSPGQTARITCSGDALPKKYAYWYQQKSGQAPVLVIYEDKKRPSEIPERFSGSSSGTMATLTITGAQVDDEADYYCYSIDRSGSRGVFGGGTKLTVLG | 11.6 | 52.2 | – | – | – |
| GX270 clone antibody (purified anti-GPC3 antibody) (antibody, V domains shown, Purified antibody; also called GX270 antibody; GX270 candidate antibody) VH: QVQLVQSGAEVKKPGASVKVSCKTSGYTFTSSYMHWVRQAPGQGLEWMGIINPNSRGTNYAQKFQGRVTMTSDTSISTAYMELSSLISDDTAVYYCASSSGDYPDYWGQGTLVTVSS VL: SYELTQPPSVSVSPGQTARIACSGDALPKHYAYWYQQKSGQAPVLVVYEDKKRPAGIPERFSGSSSGTVATLTISGAQVEDEAHYYCYSTDTSGNHRVFGGGTKLTVLG | – | – | 0.07 | 174 | 14.5 |
| GX102 clone antibody (purified anti-GPC3 antibody) (antibody, V domains shown, Purified antibody; also called GX102 antibody; GX102 candidate antibody) VH: not shown VL: GQSVLTQPPSASETPGQKVTISCSGSSSNIGTNHVFWYQQLPGTAPKLLIYRNNLRPSGVPDRFSGSKSGTSASLAISGLRSEDEADYYCAAWDDSLSWVFGGGTKLTVLG | – | – | 0.0092 | 317 | 18.7 |
| clone GN337 (scFv, V domains shown, scFv library clone tested as culture supernatant) VH: EVQLVESGPGLVKPSQTLSLTCTVSGGSVSSGGYHWNWIRQHPGKGLEWIGYIFNSGNTDYNPSLRSRLTISQDTSKNQFSLKLSSVTAADTAVYYCARHRSRLLRWFDYWGQGTMVTVSS VL: DVVLTQSPSSLSAFVGDRVTITCQASQDIRKYLNWFQQKPGKAPKLLIYDASTLETGVSSRFSGSGSGTHFNLVISSLEPEDSATYYCQQHDFVPRTFGQGTKLEIKR | 3.81 | 30.8 | – | – | – |
